In IntAct's records for PubMed 15150219:

B1: Nitrogen regulatory protein P-II (Synechococcus elongatus (strain PCC 7942)), P0A3F4 (parent)
chain: MKKIEAIIRPFKLDEVKIALVNAGIVGMTVSEVRGFGRQKGQTERYRGSEYTVEFLQKLKLEIVVEDAQVDTVIDKIVAAARTGEIGDGKIFVSPVDQTIRIRTGEKNADAI
partner: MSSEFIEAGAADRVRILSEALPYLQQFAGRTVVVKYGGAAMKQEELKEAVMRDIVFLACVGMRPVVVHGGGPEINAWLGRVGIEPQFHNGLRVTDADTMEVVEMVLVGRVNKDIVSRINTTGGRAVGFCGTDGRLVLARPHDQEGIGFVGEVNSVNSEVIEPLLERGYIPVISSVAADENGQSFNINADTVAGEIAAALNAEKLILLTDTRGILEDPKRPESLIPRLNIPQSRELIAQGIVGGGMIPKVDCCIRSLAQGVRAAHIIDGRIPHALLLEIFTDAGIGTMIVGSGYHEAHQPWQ

Variants of: B1
Conditions: with argb_syne7 argB

Effect of a mutation on the interaction, decreasing interaction:
S49D
S49E
S49A
